Reference: publication PMC12151379 (2025)
Substitutions are numbered along the chain they refer to. Names and notes keep the numbering of the source.

T1: liprin-α2_CC2 (residues 259–542) (human, UniProt O75334 259-542)
T1 chain: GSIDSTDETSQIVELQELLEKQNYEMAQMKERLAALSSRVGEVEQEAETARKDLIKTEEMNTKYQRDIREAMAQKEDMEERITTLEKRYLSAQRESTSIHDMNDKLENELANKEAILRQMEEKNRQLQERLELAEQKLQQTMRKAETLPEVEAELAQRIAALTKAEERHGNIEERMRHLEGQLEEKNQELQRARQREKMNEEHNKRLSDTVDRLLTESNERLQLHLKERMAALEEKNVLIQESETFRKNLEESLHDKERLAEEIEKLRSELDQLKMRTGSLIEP

T2: liprin-α2_CC2N E380R (human, UniProt O75334 300-404, E380R)
T2 sequence: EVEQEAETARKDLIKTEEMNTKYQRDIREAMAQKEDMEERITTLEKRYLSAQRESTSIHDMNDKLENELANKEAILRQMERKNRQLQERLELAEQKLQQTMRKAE

T3: liprin-α2_CC2N A350S (human, UniProt O75334 300-404, A350S)
T3 sequence: T2 sequence with A51S, R81E

T4: RIM1_C2B K1240E (Rattus norvegicus)
T4 chain: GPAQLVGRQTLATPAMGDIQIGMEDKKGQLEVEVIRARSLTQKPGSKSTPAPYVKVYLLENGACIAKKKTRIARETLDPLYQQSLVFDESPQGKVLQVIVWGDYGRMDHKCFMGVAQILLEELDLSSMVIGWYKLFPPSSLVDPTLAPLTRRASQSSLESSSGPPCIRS

T5: RIM1_C2B R1236E (Rattus norvegicus)
T5 chain: T4 chain with R71E, E75K

T6: RIM1_C2B L1245Q (Rattus norvegicus)
T6 chain: T4 chain with E75K, L80Q

B1: RIM1_C2B (residues 1166–1334) (domain or fragment)
chain: T4 chain with E75K
B2: liprin-α2_CC2N (residues 300–404) (domain or fragment)
chain: T2 sequence with R81E
B3: liprin-α2_CC2N E379R (protein)
chain: T2 sequence with E80R, R81E
B4: liprin-α2_CC2N R383A (protein)
chain: T2 sequence with R81E, R84A

How the values were obtained:
Assay in all cases: ITC
[1] = target: T1, liprin-α2_CC2 (residues 259–542)
[2] = target: B2
liprin-α2_CC2N E380R = target: T2, liprin-α2_CC2N E380R
liprin-α2_CC2N A350S = target: T3, liprin-α2_CC2N A350S
RIM1_C2B K1240E = target: T4, RIM1_C2B K1240E
[3] = target: B1
RIM1_C2B R1236E = target: T5, RIM1_C2B R1236E
RIM1_C2B L1245Q = target: T6, RIM1_C2B L1245Q

Binder: B1
Kd [1]: 5 µM | Kd [2]: 4 µM | Kd (liprin-α2_CC2N E380R): 8.2 µM | Kd (liprin-α2_CC2N A350S): 5.7 µM

Binder: B2
Kd (RIM1_C2B K1240E): 25 µM | Kd [3]: 4 µM | Kd (RIM1_C2B R1236E): 27 µM | Kd (RIM1_C2B L1245Q): > 100 µM

Binder: B3
Kd [3]: 23 µM

Binder: B4
Kd [3]: 24 µM
